Experimental findings from patent publication US20230212306A1 (Daiichi Sankyo, published 2023) are described below.

Test [1] concerns the target T1, rat TLR7-Flag-His×6, expressed in Ba/F3 cells (rat, UniProt P58681 27-1050 (mouse entry)).
T1 construct: cells permeabilised with 0.1% saponin; not shown: Flag-His×6 tag added to the C-terminus
T1 chain: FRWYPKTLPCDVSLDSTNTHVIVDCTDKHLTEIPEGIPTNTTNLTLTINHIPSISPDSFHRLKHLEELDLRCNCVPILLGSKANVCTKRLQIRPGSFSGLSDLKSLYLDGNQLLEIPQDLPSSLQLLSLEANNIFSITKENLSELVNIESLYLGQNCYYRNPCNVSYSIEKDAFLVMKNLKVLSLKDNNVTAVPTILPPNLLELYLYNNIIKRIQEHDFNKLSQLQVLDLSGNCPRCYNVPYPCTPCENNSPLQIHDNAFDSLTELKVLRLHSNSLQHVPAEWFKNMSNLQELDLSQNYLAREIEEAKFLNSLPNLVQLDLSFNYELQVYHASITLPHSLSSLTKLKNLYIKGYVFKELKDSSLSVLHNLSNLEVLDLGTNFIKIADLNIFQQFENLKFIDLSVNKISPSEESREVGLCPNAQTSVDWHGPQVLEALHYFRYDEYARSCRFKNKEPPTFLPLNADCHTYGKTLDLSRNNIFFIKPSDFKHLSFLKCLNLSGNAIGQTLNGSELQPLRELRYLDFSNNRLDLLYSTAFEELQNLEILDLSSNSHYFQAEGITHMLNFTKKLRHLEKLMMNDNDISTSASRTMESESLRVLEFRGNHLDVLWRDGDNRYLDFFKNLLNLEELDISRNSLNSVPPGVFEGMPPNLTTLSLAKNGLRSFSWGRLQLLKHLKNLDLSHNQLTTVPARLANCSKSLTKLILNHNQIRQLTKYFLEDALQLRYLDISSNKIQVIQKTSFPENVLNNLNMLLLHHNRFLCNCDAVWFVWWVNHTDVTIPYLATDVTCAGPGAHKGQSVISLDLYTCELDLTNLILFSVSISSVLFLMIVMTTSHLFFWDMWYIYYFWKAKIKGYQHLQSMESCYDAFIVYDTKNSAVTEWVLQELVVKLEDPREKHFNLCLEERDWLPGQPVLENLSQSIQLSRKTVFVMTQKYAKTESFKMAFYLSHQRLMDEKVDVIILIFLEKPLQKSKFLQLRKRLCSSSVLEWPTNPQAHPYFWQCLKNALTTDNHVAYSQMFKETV
Description: flow cytometry (MFI) on saponin-permeabilised Ba/F3 cells expressing rat TLR7-Flag-His×6. The source says:
(§1) The Ba/F3 cell line expressing human TLR7-Flag-His×6/human Unc93B1-HA×2 established above in 1)-1-1, the Ba/F3 cell line expressing mouse TLR7-Flag-His×6 established above in 2)-1-1, the Ba/F3 cell line expressing rat TLR7-Flag-His×6×2 established above in 2)-1-2, and the Ba/F3 cell line expressing monkey TLR7-Flag-His×6 established above in 2)-1-3 were subjected to membrane permeation with 0.1% Saponin and stained using AT01 antibody, NB7 antibody, and FAN2 antibody, and a secondary antibody, Goat anti-mouse IgG (H+L)-PE (eBioscience). The binding selectivity of each antibody was evaluated by comparing the average fluorescence intensity (MFI) based on flow cytometry analysis.
On the technique in general: Flow cytometry measures light scatter and fluorescence of single cells or particles in a stream.

The target in test [2] is T2, mouse TLR7-Flag-His×6, expressed in Ba/F3 cells (mouse, UniProt P58681 27-1050).
T2 construct: cells permeabilised with 0.1% saponin; not shown: Flag-His×6 tag added to the C-terminus
T2 sequence: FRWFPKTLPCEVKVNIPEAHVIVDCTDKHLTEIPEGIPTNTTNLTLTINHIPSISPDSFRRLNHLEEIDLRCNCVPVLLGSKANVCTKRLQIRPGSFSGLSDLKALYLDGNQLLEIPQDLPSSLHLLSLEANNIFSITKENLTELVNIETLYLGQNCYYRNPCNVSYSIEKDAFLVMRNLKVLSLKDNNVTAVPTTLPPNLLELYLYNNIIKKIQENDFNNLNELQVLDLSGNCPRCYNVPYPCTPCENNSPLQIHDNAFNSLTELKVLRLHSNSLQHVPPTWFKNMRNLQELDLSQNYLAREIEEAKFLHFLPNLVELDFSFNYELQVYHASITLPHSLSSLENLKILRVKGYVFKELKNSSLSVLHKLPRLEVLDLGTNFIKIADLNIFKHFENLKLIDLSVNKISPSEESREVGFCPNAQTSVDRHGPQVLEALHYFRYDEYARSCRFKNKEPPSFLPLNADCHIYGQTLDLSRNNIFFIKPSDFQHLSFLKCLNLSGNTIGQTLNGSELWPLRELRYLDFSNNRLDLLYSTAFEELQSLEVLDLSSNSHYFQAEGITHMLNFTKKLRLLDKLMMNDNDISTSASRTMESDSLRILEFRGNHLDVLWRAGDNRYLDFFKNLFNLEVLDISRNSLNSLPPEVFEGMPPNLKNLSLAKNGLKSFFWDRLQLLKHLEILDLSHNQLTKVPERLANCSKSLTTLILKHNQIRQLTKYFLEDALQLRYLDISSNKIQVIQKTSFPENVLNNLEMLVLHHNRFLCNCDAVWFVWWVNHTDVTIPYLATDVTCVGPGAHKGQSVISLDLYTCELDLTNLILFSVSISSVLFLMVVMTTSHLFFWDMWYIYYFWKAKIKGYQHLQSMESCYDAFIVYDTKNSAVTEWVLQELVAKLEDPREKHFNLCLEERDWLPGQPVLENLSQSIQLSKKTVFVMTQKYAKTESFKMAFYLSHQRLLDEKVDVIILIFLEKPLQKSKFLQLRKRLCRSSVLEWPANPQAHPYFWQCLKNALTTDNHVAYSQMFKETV
Description: flow cytometry (MFI) on saponin-permeabilised Ba/F3 cells expressing mouse TLR7-Flag-His×6.
Source text: as §1

B1: FAN2 antibody (antibody, IgG1, V domains shown)
VH: QVQLKESGPGLVAPSQSLSITCTVSGFSLTGYGVNWVRQPPGKGLEWLGMIWGDGSTDYNSALKSRLSIRKDNSKSQVFLKMNSLQTDDTARYYCARDKGYDGYYYAMDYWGQGTSVTVSS
VL: DIQMTQSPASLSASVGETVTITCRASENIYSYLAWYQQKQGKSPQLLVYDAKTLAEGVPSRFSGSGSGTQFSLKINSLQPEDFGSYYCQHHYGIPYTFGGGTKLEIK
notes: also called mouse anti-human TLR7 antibody (FAN2)
As for B1, the binding result in test [1] and in test [2] was “no binding” each time.

B2: NB7 antibody (antibody, IgG1, V domains shown)
VH: DVQLQESGPGLVKPSQSLSLTCTVTGYSITSDYAWNWIRQFPGNKLEWMGHISYRGNTNYNPSLKSRISITRDTSKNQFFLQLNSVTTEDTATYYCASWNYYGYVDYAMDYWGQGTSVTVSS
VL: DIQMTQTPSSLSASLGDRVTISCRASQDISNYLNWYQQKPDGTVKLLIYYTSRLHSGVPSRFSGSGSGTDYSLTINNLEQEDIATYFCQQGDTFPTFGGGTKLEIK
notes: also called mouse anti-human TLR7 antibody (NB7)
For B2, the binding result in test [1] and in test [2] was “no binding” in each case.

B3: AT01 antibody (antibody, IgG1, V domains shown)
VH: QVQLQQPGAELVKPGASVNLSCKASGYTFTNNWLHWVKQRPGRGLEWIGDIYPSNGRTNYNEQFKTKATLTVDKSSSTAYMQLSSLTSEDSAVYFCARERGYFDYWGQGTALTVSS
VL: DIQMTQSPSSLSTSLGGKVTITCKASQDINKYIAWYQHKPGKGPRLLIHYTSTLQPGIPSRFSGSGSGRDYSFSISNLEPEDIATYYCLQYDYLLTFGAGTKLELK
notes: also called mouse anti-human TLR7 antibody (AT01)
With B3, the binding result in test [1] and in test [2] was “no binding” in each case.
